Experimental data as given in paper PMC2742894, “Crystal Structure of the N-Acetylmannosamine Kinase Domain of GNE” (PLoS ONE, 2009).

Biological target: the molecule itself
Experiment: SEC; Superdex-200 10/300; GNE kinase domain at 6 mg per mL in 20 mM HEPES pH 7.5, 500 mM NaCl, 5 mM MgCl2, 1 mM TCEP; apparent molecular weight from a calibration curve

B1: N-acetylmannosamine kinase domain of UDP-GlcNAc 2-epimerase/N-acetylmannosamine kinase (GNE), residues 406-720 (domain or fragment, human, UniProt Q9Y223 406-720, looked up)
chain: TLSALAVDLGGTNLRVAIVSMKGEIVKKYTQFNPKTYEERINLILQMCVEAAAEAVKLNCRILGVGISTGGRVNPREGIVLHSTKLIQEWNSVDLRTPLSDTLHLPVWVDNDGNCAALAERKFGQGKGLENFVTLITGTGIGGGIIHQHELIHGSSFCAAELGHLVVSLDGPDCSCGSHGCIEAYASGMALQREAKKLHDEDLLLVEGMSVPKDEAVGALHLIQAAKLGNAKAQSILRTAGTALGLGVVNILHTMNPSLVILSGVLASHYIHIVKDVIRQQALSSVQDVDVVVSDLVDPALLGAASMVLDYTTRR
notes: UDP-GlcNAc 2-epimerase/N-acetylmannosamine kinase (GNE), human, kinase domain, residues 406-720; cDNA codon optimized for E. coli and synthesized; Cloned into pET28-MHL (gi:134105571); For crystallization 1:100 chymotrypsin (w/w) and 5 mM ADP were added to the protein stock, so the crystallized chain may be trimmed; residues 475-498 are not seen in the electron density; A …
B1 was tested. Which “stoichiometry N” value did it give?
Its value is 2.
